This note sets out measurements from article PMC10344929, “Crosstalk between regulatory elements in disordered TRPV4 N-terminus modulates lipid-dependent channel activity” (Nature Communications, 2023).

The target of the assay is T1, Gallus gallus TRPV4 isolated ankyrin repeat domain (residues 135-382) (Gallus gallus, UniProt A0A1D5PXA5 135-382).
T1 construct: TRPV4, Gallus gallus, ankyrin repeat domain, residues 135-382; Made from the NTD vector by Gibson deletion; also called ARD; TRPV4 ARD; source: E. coli BL21-Gold(DE3), purified (Ni-NTA, Ulp-1 cleavage, reverse Ni-NTA, SEC); not shown: His6SUMO, N-terminal, cleaved
Nature of the assay: cross-linking; DSS-H12/D12 cross-linking mass spectrometry; isolated IDR and ARD mixed 1:1; 1.5 nmol DSS per ug protein, 2 h at 4 °C, 1 mg/mL protein, 20 mM HEPES pH 7, 300 mM NaCl. As to conditions: both partners purified.

T1 sequence (A0A1D5PXA5 135-382): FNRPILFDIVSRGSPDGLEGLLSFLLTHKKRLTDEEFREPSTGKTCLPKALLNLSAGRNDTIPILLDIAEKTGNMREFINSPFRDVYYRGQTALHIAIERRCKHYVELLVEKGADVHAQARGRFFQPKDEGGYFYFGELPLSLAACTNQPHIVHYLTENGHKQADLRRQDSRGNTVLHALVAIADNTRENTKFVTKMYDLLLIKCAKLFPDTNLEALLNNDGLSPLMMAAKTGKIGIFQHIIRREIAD

B1: Gallus gallus TRPV4 isolated intrinsically disordered region (residues 2-134) (domain or fragment, UniProt A0A1D5PXA5 2-134, looked up)
chain: ADPEDPRDAGDVLGDDSFPLSSLANLFEVEDTPSPAEPSRGPPGAVDGKQNLRMKFHGAFRKGPPKPMELLESTIYESSVVPAPKKAPMDSLFDYGTYRQHPSENKRWRRRVVEKPVAGTKGPAPNPPPILKV
notes: TRPV4, Gallus gallus, N-terminal intrinsically disordered region, residues 2-134; Made from the NTD vector by Gibson deletion; also called IDR; TRPV4 IDR; source: E. coli BL21-Gold(DE3), purified (Ni-NTA, Ulp-1 cleavage, reverse Ni-NTA, SEC); not shown: His6SUMO, N-terminal, cleaved
Regarding B1, the binding result is “binds”.
